Assay results published in patent publication US20150216990A1 (TUFTS MEDICAL CENTER, published 2015).
The star is where a group is joined. Palmitoyl = CCCCCCCCCCCCCCCC(=O)*

Target: T1, human PAR1 (thrombin receptor) on human platelets (human, UniProt P25116 42-425)
T1 sequence (looked up): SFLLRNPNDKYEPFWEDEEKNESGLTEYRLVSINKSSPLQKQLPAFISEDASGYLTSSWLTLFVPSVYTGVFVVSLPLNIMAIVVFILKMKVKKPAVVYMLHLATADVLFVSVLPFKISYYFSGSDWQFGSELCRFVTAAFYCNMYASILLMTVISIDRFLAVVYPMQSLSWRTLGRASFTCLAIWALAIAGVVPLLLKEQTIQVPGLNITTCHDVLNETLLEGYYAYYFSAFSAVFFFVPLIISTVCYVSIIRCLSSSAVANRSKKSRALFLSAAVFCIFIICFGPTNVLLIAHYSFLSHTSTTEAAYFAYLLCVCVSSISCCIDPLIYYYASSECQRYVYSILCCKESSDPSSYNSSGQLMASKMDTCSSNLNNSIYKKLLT
Test: cell-based or functional assay

right shift of thrombin-induced aggregation of human platelets: 5 fold
Binder: Palmitoyl-KKSRALF-NH2 (also: acetate salt) [PZ-128 (palmitate-KKSRALF-NH2)]
